Assay results: US20220064329A1 (Novo Nordisk, published 2022)
Positions count from the first letter of the chain named. Names and notes keep the numbering of the source.

T1: recombinant human activated Factor VII (FVIIa) (human, UniProt P08709 61-212; P08709 213-466, ten glutamate residues of the Gla domain may be gamma-carboxylated)
T1 construct: chains tethered by a disulfide bond; also called Factor VIIa; rFVIIa
T1 sequence 1: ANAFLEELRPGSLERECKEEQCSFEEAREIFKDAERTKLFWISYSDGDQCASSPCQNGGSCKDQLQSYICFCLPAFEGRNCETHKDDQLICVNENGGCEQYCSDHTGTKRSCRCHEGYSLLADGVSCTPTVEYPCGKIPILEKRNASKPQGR
T1 sequence 2: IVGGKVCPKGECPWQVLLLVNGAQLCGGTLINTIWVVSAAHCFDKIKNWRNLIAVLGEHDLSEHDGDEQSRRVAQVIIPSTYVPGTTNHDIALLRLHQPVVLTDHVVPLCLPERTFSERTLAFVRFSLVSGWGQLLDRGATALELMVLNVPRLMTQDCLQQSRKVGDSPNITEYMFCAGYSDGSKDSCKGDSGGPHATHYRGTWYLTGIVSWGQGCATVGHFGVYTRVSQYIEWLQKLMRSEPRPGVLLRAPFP

B1: VH SEQ ID NO 626 / VL SEQ ID NO 470 (antibody, IgG4, V domains shown)
VH: QVQLQESGPGLVKPSQTLSLTCTVSGYSISSDSAWSWIRQPPGKGLEWIGYIQYSGSTNYNPSLKSRVTISRDTSKNQFSLKLSSVTAADTAVYYCARSVNYYGNSFAVGPWGQGTLVTVSS
VL: EIVLTQSPATLSLSPGERATLSCRASQGVSDYLHWYQQKPGQAPRLLIKYASQPATGIPARFSGSGSGTDFTLTISSLEPEDFAVYYCQNGHSFPLTFGQGTKLEIK
notes: humanized 11F2; IgG4 S228P/kappa
B2: VH SEQ ID NO 514 / VL SEQ ID NO 486 (antibody, IgG4, V domains shown)
VH: B1 VH with K13E, Q16D, T23A, S30T, G45K, I70M, A89L, P111Y
VL: B1 VL with A84G
notes: as for B1
B3: VH SEQ ID NO 514 / VL SEQ ID NO 494 (antibody, IgG4, V domains shown)
VH: B1 VH with K13E, Q16D, T23A, S30T, G45K, I70M, A89L, P111Y
VL: B1 VL with F83V
notes: as for B1
B4: VH SEQ ID NO 514 / VL SEQ ID NO 454 (antibody, IgG4, V domains shown)
VH: B1 VH with K13E, Q16D, T23A, S30T, G45K, I70M, A89L, P111Y
VL: B1 VL with Q42E
notes: as for B1
B5: VH SEQ ID NO 514 / VL SEQ ID NO 414 (antibody, IgG4, V domains shown)
VH: B1 VH with K13E, Q16D, T23A, S30T, G45K, I70M, A89L, P111Y
VL: B1 VL with H34A
notes: as for B1
B6: VH SEQ ID NO 514 / VL SEQ ID NO 502 (antibody, IgG4, V domains shown)
VH: B1 VH with K13E, Q16D, T23A, S30T, G45K, I70M, A89L, P111Y
VL: B1 VL with A51T
notes: as for B1
B7: VH SEQ ID NO 514 / VL SEQ ID NO 334 (antibody, IgG4, V domains shown)
VH: B1 VH with K13E, Q16D, T23A, S30T, G45K, I70M, A89L, P111Y
VL: B1 VL with V29I
notes: as for B1
B8: VH SEQ ID NO 314 / VL SEQ ID NO 478 (antibody, IgG4, V domains shown)
VH: B1 VH with K13E, Q16D, T23A, I70M, R72V, A89L
VL: B1 VL with N90Q
notes: as for B1
B9: VH SEQ ID NO 314 / VL SEQ ID NO 334 (antibody, IgG4, V domains shown)
VH: B1 VH with K13E, Q16D, T23A, I70M, R72V, A89L
VL: B1 VL with V29I
notes: as for B1
B10: VH SEQ ID NO 514 / VL SEQ ID NO 358 (antibody, IgG4, V domains shown)
VH: B1 VH with K13E, Q16D, T23A, S30T, G45K, I70M, A89L, P111Y
VL: B1 VL with V29I, A51T
notes: as for B1
B11: VH SEQ ID NO 314 / VL SEQ ID NO 494 (antibody, IgG4, V domains shown)
VH: B1 VH with K13E, Q16D, T23A, I70M, R72V, A89L
VL: B1 VL with F83V
notes: as for B1
B12: VH SEQ ID NO 314 / VL SEQ ID NO 350 (antibody, IgG4, V domains shown)
VH: B1 VH with K13E, Q16D, T23A, I70M, R72V, A89L
VL: B1 VL with V29I, A51T, Q100A, I106L
notes: as for B1
B13: VH SEQ ID NO 514 / VL SEQ ID NO 422 (antibody, IgG4, V domains shown)
VH: B1 VH with K13E, Q16D, T23A, S30T, G45K, I70M, A89L, P111Y
VL: B1 VL with H34A, N90Q
notes: as for B1
B14: VH SEQ ID NO 514 / VL SEQ ID NO 470 (antibody, IgG4, V domains shown)
VH: B1 VH with K13E, Q16D, T23A, S30T, G45K, I70M, A89L, P111Y
VL: B1 VL
notes: as for B1
B15: VH SEQ ID NO 314 / VL SEQ ID NO 454 (antibody, IgG4, V domains shown)
VH: B1 VH with K13E, Q16D, T23A, I70M, R72V, A89L
VL: B1 VL with Q42E
notes: as for B1
B16: VH SEQ ID NO 522 / VL SEQ ID NO 318 (antibody, IgG4, V domains shown)
VH: B1 VH with K13E
VL: B1 VL with V29I, Q42E, A51T
notes: as for B1
B17: VH SEQ ID NO 314 / VL SEQ ID NO 342 (antibody, IgG4, V domains shown)
VH: B1 VH with K13E, Q16D, T23A, I70M, R72V, A89L
VL: B1 VL with V29I, A51T, T69R, Q100A, I106L
notes: as for B1
B18: VH SEQ ID NO 314 / VL SEQ ID NO 486 (antibody, IgG4, V domains shown)
VH: B1 VH with K13E, Q16D, T23A, I70M, R72V, A89L
VL: B1 VL with A84G
notes: as for B1
B19: VH SEQ ID NO 514 / VL SEQ ID NO 390 (antibody, IgG4, V domains shown)
VH: B1 VH with K13E, Q16D, T23A, S30T, G45K, I70M, A89L, P111Y
VL: B1 VL with H34A, Q42E
notes: as for B1
B20: VH SEQ ID NO 514 / VL SEQ ID NO 310 (antibody, IgG4, V domains shown)
VH: B1 VH with K13E, Q16D, T23A, S30T, G45K, I70M, A89L, P111Y
VL: B1 VL with V29I, H34A
notes: as for B1
B21: VH SEQ ID NO 522 / VL SEQ ID NO 350 (antibody, IgG4, V domains shown)
VH: B1 VH with K13E
VL: B1 VL with V29I, A51T, Q100A, I106L
notes: as for B1

The binders below were run against T1, recombinant human activated Factor VII … (assay: BLI (Fortebio)).
Method: All steps were performed in running buffer (20 mM HEPES buffer (pH 7.4), 150 mM NaCl, 5 mM CaCl2, 0.03% Tween 20, 1 mg/ml IgG-free BSA) at […] Antibodies were captured on anti-human tips (AHC, Fortebio) for 3 min at a concentration of 10 ug/ml. This was followed by a 3 min incubation to establish a baseline. Following this, association was monitored for 3 min using four different concentrations of VIIa (25 nm, 50 nM, 100 nM, and 200 nM), followed by a 3 mi dissociation. Sensorgrams were analysed using Fortebio data analysis software.

Kd [nM]	Binder
1.1	B1
0.95	B2
1.4	B3
1.3	B4
4.6	B5
0.92	B6
1.1	B7
64	B8
21	B9
0.87	B10
28	B11
19	B12
68	B13
1.2	B14
32	B15
0.97	B16
28	B17
22	B18
4.7	B19
3.1	B20
1.3	B21
